Laboratory results taken from the supplement of paper PMC10126150.
± gives the standard deviation of the averaged measurements.

Test system: ATP
Test: switch fluorescence ratio, 500 uM ATP over buffer (Cy3 cluster intensity, sum of 5 cycles each) (fold (ratio)); higher = stronger signal-on switching upon ATP binding; sequences stand for … in TCGTCGGCAGCGTCAGATGTGTATAAGAGACAGTTTTTTTTTTTTTTTTTTTTTTTTT…TC
Conditions: aptamer strand: ATP DNA aptamer (quencher-CACCTGGGGGAGTATTGCGGAGGAAGG + anchor), 100 nM annealed; ATP concentration: 500 uM
In short: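 For every switch-domain sequence, the fluorescence ratio is the mean of per-cluster values, each being summed target-cycle Cy3 intensity over summed buffer-cycle Cy3 intensity. Clusters outside 100-1000 RFU were excluded. On a modified Illumina MiSeq flow-cell, the Cy3-labelled switching-strand clusters were annealed to 100 nM quencher-labelled ATP aptamer, imaged in selection buffer and then after 15 min with 500 uM ATP at 22 °C. Five such cycles were run, with NaOH stripping and re-annealing between them.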
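Also: ATP exposure 15 min at 22 °C before imaging.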

| Sequence | switch fluorescence ratio |
| --- | --- |
| TAGTTATTA | 0.989 ± 0.026 |
| ACCTAGTAAA | 0.987 ± 0.025 |
| GCTTTATGTT | 0.9938 ± 0.0015 |
| CAAGGGGGTT | 1.02 ± 0.05 |
| AGATTTTAGG | 0.988 ± 0.012 |
| AGTGAGTTTT | 1.03 ± 0.024 |
| TTAAAGGCTT | 0.997 ± 0.019 |
| GTGCAGGTGC | 1.37 ± 0.026 |
| CTTGCATGGC | 1.077 ± 0.0092 |
| TCGGGTACGT | 0.967 ± 0.032 |
| TAGGTAGGAG | 1 ± 0.031 |
| GGTTAGTATT | 0.987 ± 0.021 |
| TAATCTTAGG | 0.9838 ± 0.0079 |
| GGGATCGAGG | 1.01 ± 0.035 |
| CGTTTCGTTT | 0.98 ± 0.039 |
| GGTTAAATTA | 1.01 ± 0.013 |
| AAGTTCGTTG | 1.01 ± 0.036 |
| TCCTGGGCTA | 1.57 ± 0.019 |
| TATATGTAAT | 1.01 ± 0.038 |
| TAAGCTGGCT | 1.025 ± 0.0092 |
| TCTTTGGGGG | 1 ± 0.053 |
| CGTAGGGTGT | 1 ± 0.022 |
| CTTGTGTTCT | 0.9964 ± 0.004 |

| Sequence | switch fluorescence ratio |
| --- | --- |
| CGTGTTTATA | 0.99 ± 0.042 |
| TTAGGGAAGT | 0.991 ± 0.031 |
| TGGCGAAGGT | 0.9747 ± 0.0085 |
| GCTGTAAATT | 0.982 ± 0.019 |
| AAAGGGCTGT | 1.01 ± 0.043 |
| TTTTGTTGGC | 1.04 ± 0.035 |
| TTTCTTTTAT | 0.998 ± 0.016 |
| GTTGTATTTT | 0.989 ± 0.022 |
| GTACTTTAAT | 1.034 ± 0.0036 |
| CGGTCTAATT | 0.9989 ± 0.0027 |
| GACGATAGAT | 1.048 ± 0.00083 |
| GGCGGTAATG | 1.036 ± 0.005 |
| AAATAACTTT | 1.027 ± 0.0051 |
| GTGATTTCGG | 1.022 ± 0.0095 |
| CGGGTGTATC | 1.03 ± 0.046 |
| GTTATTGAGT | 1.007 ± 0.0089 |
| CGTTAAGAAA | 0.994 ± 0.016 |
| TTTATGCCAT | 0.989 ± 0.012 |
| AGTTTTGGGC | 0.976 ± 0.016 |
| TTAAGAAAAG | 1.1 ± 0.065 |
| CGAAGGTTTA | 0.9981 ± 0.0018 |
| CGTGACAAGA | 0.986 ± 0.056 |
| TGTTAATAGT | 0.981 ± 0.015 |

| Sequence | switch fluorescence ratio |
| --- | --- |
| TTATTCTTTC | 1.01 ± 0.046 |
| CCGGGGTGTG | 1.08 ± 0.012 |
| TCTTTGTTGT | 1.01 ± 0.019 |
| ATTCCAAGGA | 0.9853 ± 0.0019 |
| AAAGTGGTTC | 1.04 ± 0.053 |
| TTATAAAAGG | 1.031 ± 0.0021 |
| TATTGGTTCA | 0.996 ± 0.018 |
| AAGATGTATT | 0.9561 ± 0.0015 |
| AATTCGGATG | 1.02 ± 0.034 |
| AGGCGGGCAG | 1.039 ± 0.004 |
| GCGCTAGCAG | 0.99 ± 0.018 |
| TACAGGTTTC | 1 ± 0.023 |
| CGGTAATCGG | 0.988 ± 0.01 |
| TATGAAGAGG | 0.994 ± 0.033 |
| GGAGAACCCT | 1.07 ± 0.038 |
| ATTTATGTTC | 0.994 ± 0.033 |
| GTGGCGCCGC | 0.959 ± 0.047 |
| CGATTTATGT | 0.9925 ± 0.0057 |
| CAGTGCACTC | 0.9918 ± 0.0014 |
| AAAGAGACGC | 1.03 ± 0.068 |
| AAGGGTGCTC | 1.03 ± 0.047 |
| TTAATGCAAC | 1.01 ± 0.021 |
| GATTTATTTG | 0.989 ± 0.048 |

| Sequence | switch fluorescence ratio |
| --- | --- |
| GGGGGAAAAG | 1.03 ± 0.1 |
| ATTTAGAGGT | 0.965 ± 0.043 |
| CTCCGGCGGG | 1.18 ± 0.057 |
| TTAAAAGGGT | 0.99 ± 0.013 |
| TAAGGTCGGT | 0.966 ± 0.018 |
| GGATAACTCT | 1.01 ± 0.015 |
| TATTAAGGA | 0.9762 ± 0.009 |
| TAAATTTAGG | 0.989 ± 0.02 |
| GGGTTTATAA | 0.987 ± 0.023 |
| TGACGACTGT | 1 ± 0.021 |
| GGAATGTTAG | 0.986 ± 0.012 |
| GGGTAATTAT | 1.01 ± 0.036 |
| GCATTTTCTG | 1.02 ± 0.026 |
| TGATGCTAGG | 1.01 ± 0.021 |
| CTAAAGCGCG | 1.07 ± 0.034 |
| GAGGGAGGGT | 1.02 ± 0.032 |
| GTGATTGGGA | 0.963 ± 0.058 |
| ATGGTTGGTA | 0.995 ± 0.038 |
| GGCGATTGGA | 1 ± 0.016 |
| CGGGGGTGGC | 0.984 ± 0.029 |
| GGGGGTATAC | 1.28 ± 0.11 |
| GCGGGTGACC | 1.02 ± 0.034 |
| TGGGGGAGGT | 1 ± 0.027 |

| Sequence | switch fluorescence ratio |
| --- | --- |
| TCGCGATCAG | 1.12 ± 0.042 |
| TTTAGTGTAT | 0.991 ± 0.04 |
| TGTTACTACG | 1.0494 ± 0.00016 |
| ATTAGGTACG | 1.02 ± 0.038 |
| TGAGCGGGGG | 0.996 ± 0.021 |
| TCGTGGAGGT | 0.985 ± 0.036 |
| ATTGATACTA | 1.03 ± 0.021 |
| TGAAAAGCGC | 1.01 ± 0.024 |
| AGTTTAGGTA | 1.01 ± 0.052 |
| CGATTTTTTG | 1 ± 0.019 |
| TGCGAAGGAG | 0.9794 ± 0.0063 |
| TTTGTTGAAA | 1.02 ± 0.018 |
| TTAAAAATGG | 1.02 ± 0.018 |
| AATTGGCGGT | 1.03 ± 0.027 |
| GACTGCAGGT | 1.01 ± 0.033 |
| TATGTTGTAC | 1.052 ± 0.0086 |
| TTTTATCTTT | 1 ± 0.015 |
| TAGAAATGCG | 1.038 ± 0.0038 |
| TTCGCGGGTT | 0.97 ± 0.01 |
| AATCATCGGT | 0.999 ± 0.027 |
| ACAAGGGAGA | 1.06 ± 0.012 |
| TTTGATACGC | 1.04 ± 0.031 |
| TATGGACTGT | 1.021 ± 0.01 |

| Sequence | switch fluorescence ratio |
| --- | --- |
| CCTTTTTTTG | 1.01 ± 0.024 |
| GAGCGCTAGG | 0.9952 ± 0.0043 |
| TTCAGAAGGT | 1.01 ± 0.051 |
| CTGACGTGCT | 1.062 ± 0.004 |
| AGGCCCATGT | 1.02 ± 0.012 |
| GGTACCCTGG | 1.03 ± 0.014 |
| CGTCCGGTG | 1.78 ± 0.65 |
| TGAAGGGGTG | 0.989 ± 0.026 |
| CAGGGTATTT | 0.981 ± 0.032 |
| AAATTCATTA | 0.981 ± 0.083 |
| GGGTTTCAAT | 0.9372 ± 0.0067 |
| CGAAGGGTCC | 0.959 ± 0.031 |
| AGGTTGGTAA | 0.969 ± 0.01 |
| AGAATTGGGT | 0.9964 ± 0.0014 |
| AACGGTAATT | 1.1 ± 0.034 |
| TGCCTGCGGA | 1.001 ± 0.005 |
| TCGGATTAGT | 1 ± 0.025 |
| CGCTTAACCG | 1.04 ± 0.043 |
| TGCGTAGTGC | 1.09 ± 0.036 |
| CTAGTTATGA | 1.02 ± 0.016 |
| GAGGGGTGAC | 0.979 ± 0.021 |
| GTGGGATGGA | 0.978 ± 0.014 |
| CAATGTGTCG | 1.07 ± 0.055 |

| Sequence | switch fluorescence ratio |
| --- | --- |
| TTAGACGGGG | 1 ± 0.034 |
| GTGGTTAGAA | 0.9841 ± 0.0025 |
| CCATTGCTCG | 1.04 ± 0.05 |
| AGCCGCGCAG | 1.035 ± 0.0056 |
| GTCAGCATTT | 1.03 ± 0.038 |
| GGATGGGCTG | 1 ± 0.094 |
| TGTTAATAAG | 0.9618 ± 0.0071 |
| GCTCACTGTG | 1.037 ± 0.0034 |
| TCAGGGAGTA | 1.04 ± 0.053 |
| TTTGGATGAC | 1.01 ± 0.063 |
| ATTTGGATGG | 0.985 ± 0.023 |
| GAGGGAAAGG | 1.02 ± 0.052 |
| GGCTTTGGAT | 0.977 ± 0.018 |
| CTAAGATAGC | 1.03 ± 0.041 |
| ACGCCGGCTT | 1.272 ± 0.0019 |
| CTGGCTACTA | 1.03 ± 0.031 |
| ATAGTAAGTA | 0.996 ± 0.024 |
| AAATGGTGAT | 1.035 ± 0.0041 |
| TTTCTGGAAT | 0.991 ± 0.0019 |
